# Results taken from patent US20210047399A1 (PHANES THERAPEUTICS, published 2021).
# T1: recombinant FLAG-huDLL3 (human DLL3 extracellular domain with FLAG tag at the N-terminus) (human, UniProt Q9NYJ7 27-492)
# T1 construct: Bought (Adipogen, Cat AG40B-0151); the whole entry is named here; also called recombinant DLL3 protein; recombinant human FLAG-huDLL3; not shown: N-terminal FLAG tag
# T1 sequence: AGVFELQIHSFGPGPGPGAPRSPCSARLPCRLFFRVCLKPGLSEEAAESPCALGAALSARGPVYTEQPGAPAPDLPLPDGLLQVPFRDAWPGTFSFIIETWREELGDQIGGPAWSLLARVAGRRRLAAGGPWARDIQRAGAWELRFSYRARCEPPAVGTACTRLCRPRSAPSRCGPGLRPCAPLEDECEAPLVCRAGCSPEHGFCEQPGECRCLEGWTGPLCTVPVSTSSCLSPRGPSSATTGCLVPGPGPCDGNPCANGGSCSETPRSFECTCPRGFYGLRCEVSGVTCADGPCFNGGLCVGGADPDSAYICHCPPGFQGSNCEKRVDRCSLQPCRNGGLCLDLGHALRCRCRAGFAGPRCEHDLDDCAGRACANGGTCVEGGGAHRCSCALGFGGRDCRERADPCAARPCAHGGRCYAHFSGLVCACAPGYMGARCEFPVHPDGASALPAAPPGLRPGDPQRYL
# Target: T1, recombinant FLAG-huDLL3 (human DLL3 …)
# Experiment: ELISA, FLAG-huDLL3 coated on plate
row,EC50,Binder
1,0.13 nM,"humanized anti-DLL3 mAb H1L1 (antibody, V domains shown, Humanized 13P9A) VH: EVRLSQSGGQMKKPGESMRLSCRASGYTFTSYVMHWVRQAPGRRPEWIGYINPYNDATKYARKFQGRATLTSDKYSDTAFLELRSLTSDDTAVYYCARGGYDYDGDYWGRGAPVTVSS VL: EIVMTQSPGTLSLSPGERATLSCHASQNINVWLSWYQQKPGQAPRLLIYKASNLHTGIPDRFSGSGSGTDFTLTISRLEPEDFAVYYCQQGQSYPFTFGQGTKVEIK"
2,0.15 nM,"humanized anti-DLL3 mAb H1L3 (antibody, V domains shown) VH: EVRLSQSGGQMKKPGESMRLSCRASGYTFTSYVMHWVRQAPGRRPEWIGYINPYNDATKYARKFQGRATLTSDKYSDTAFLELRSLTSDDTAVYYCARGGYDYDGDYWGRGAPVTVSS VL: EIVMTQSPATLSLSPGETAIISCHASQNINVWLSWYQQRPGQAPRLLIYKASNLHTGIPDRFSGSGWGTDFNLSISNLESGDFGVYYCQQGQSYPFTFGQGTKVEIK"
3,0.12 nM,"humanized anti-DLL3 mAb H1L2 (antibody, V domains shown, also called anti-DLL3 parental mAb) VH: EVRLSQSGGQMKKPGESMRLSCRASGYTFTSYVMHWVRQAPGRRPEWIGYINPYNDATKYARKFQGRATLTSDKYSDTAFLELRSLTSDDTAVYYCARGGYDYDGDYWGRGAPVTVSS VL: EIVLTQSPGTLSLSPGERATLSCHASQNINVWLSWYQQKPGQAPRLLIYKASNLHTGIPDRFSGSGSGTDFTLTISRLEPEDFAVYYCQQGQSYPFTFGQGTKVEIK"

# Target: T2, human CD47 extracellular domain (CD47(ECD)) (human, UniProt Q08722 19-139)
# T2 construct: extracellular domain; Bought protein; also called human CD47(ECD); immobilized CD47
# T2 sequence (Q08722 19-139 limits assumed): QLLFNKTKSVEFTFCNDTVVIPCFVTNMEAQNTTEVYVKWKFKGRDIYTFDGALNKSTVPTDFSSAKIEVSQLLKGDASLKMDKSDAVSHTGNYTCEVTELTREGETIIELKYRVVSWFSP
# Experiment: ELISA, human CD47(ECD) coated on plate
# Experimental: The purified mAbs were analyzed for their ability to bind to the extracellular domain of CD47 (CD47(ECD)) in an ELISA assay as follows: human CD47(ECD) (AcroBio, Cat #: CD7-HA2E9-50 μg) in carbonate coating buffer (50 μL/well at 1 μg/mL) was coated on a 96-well ELISA plate for 1 hour at room temperature. After washing, the plate was blocked in 5% BSA in TBST for 1 hour at room temperature and washed again. In each well of the plate, an antibody at 50 μL/well at various concentrations was added and incubated for 1 hour at room temperature. The plate was washed and the binding of the antibody to the immobilized CD47 was detected by incubating with anti-human IgG conjugated to horseradish peroxidase (hIgG-HRP) (ThermoFisher Scientific, Cat #: H10007) for 60 minutes at room temperature. Then after washing, the ELISA was developed using One-step Detection Solution (ThermoFisher Scientific, Cat #: 34028) and measured as the absorbance at 450 nm.
row,EC50,Binder
1,0.08 nM,"humanized anti-CD47 mAb KH3L4 (antibody, V domains shown) VH: EVRLSQSGGQMKKPGESMRLSCRASGYTFTSYWMHWVRQAPGRRLEWIGNIDPSDSETHYARKFQGRATLTVDKYSDTAFLELRSLTSDDTAVYYCAGTDLAYWGRGAPVTVSS VL: EIVMTQSPATLSLSPGETAIISCHASQNINVWLSWYQQRPGQAPRLLIYKASNLHTGIPDRFSGSGWGTDFNLSISNLESGDFGVYYCQQGQSYPWTFGQGTKVEIK"
2,0.09 nM,"humanized anti-CD47 mAb KH2L3 (antibody, V domains shown) VH: QVQLVQSGAEVKKPGASVKVSCKASGYTFTSYWMHWVRQAPGQGLEWIGNIDPSDSETHYAQKFQGRVTLTVDKSTSTVYMELSSLRSEDTAVYYCAGTDLAYWGQGTLVTVSS VL: EIVMTQSPATLSLSPGETAIISCHASQNINVWLSWYQQRPGQAPRLLIYKASNLHTGIPDRFSGSGWGTDFNLSISNLESGDFGVYYCQQGQSYPFTFGQGTKVEIK"
3,1.17 nM,"humanized anti-CD47 mAb KH1L1 (antibody, V domains shown, Humanized VH of anti-CD47 mAb 17C6A with humanized VL of anti-DLL3 13P9A) VH: QVQLVQSGAEVKKPGSSVKVSCKASGYTFTSYWMHWVRQAPGQGLEWIGNIDPSDSETHYAQKFQGRATLTVDKSTSTAYMELSSLRSEDTAVYYCAGTDLAYWGQGTLVTVSS VL: EIVMTQSPGTLSLSPGERATLSCHASQNINVWLSWYQQKPGQAPRLLIYKASNLHTGIPDRFSGSGSGTDFTLTISRLEPEDFAVYYCQQGQSYPFTFGQGTKVEIK"
4,0.09 nM,"humanized anti-CD47 mAb KH3L1 (antibody, V domains shown) VH: EVRLSQSGGQMKKPGESMRLSCRASGYTFTSYWMHWVRQAPGRRLEWIGNIDPSDSETHYARKFQGRATLTVDKYSDTAFLELRSLTSDDTAVYYCAGTDLAYWGRGAPVTVSS VL: EIVMTQSPGTLSLSPGERATLSCHASQNINVWLSWYQQKPGQAPRLLIYKASNLHTGIPDRFSGSGSGTDFTLTISRLEPEDFAVYYCQQGQSYPFTFGQGTKVEIK"
5,0.18 nM,"humanized anti-CD47 mAb KH2L2 (antibody, V domains shown, also called anti-CD47 parental mAb) VH: QVQLVQSGAEVKKPGASVKVSCKASGYTFTSYWMHWVRQAPGQGLEWIGNIDPSDSETHYAQKFQGRVTLTVDKSTSTVYMELSSLRSEDTAVYYCAGTDLAYWGQGTLVTVSS VL: EIVLTQSPGTLSLSPGERATLSCHASQNINVWLSWYQQKPGQAPRLLIYKASNLHTGIPDRFSGSGSGTDFTLTISRLEPEDFAVYYCQQGQSYPFTFGQGTKVEIK"
6,0.64 nM,"humanized anti-CD47 mAb KH1L2 (antibody, V domains shown) VH: QVQLVQSGAEVKKPGSSVKVSCKASGYTFTSYWMHWVRQAPGQGLEWIGNIDPSDSETHYAQKFQGRATLTVDKSTSTAYMELSSLRSEDTAVYYCAGTDLAYWGQGTLVTVSS VL: EIVLTQSPGTLSLSPGERATLSCHASQNINVWLSWYQQKPGQAPRLLIYKASNLHTGIPDRFSGSGSGTDFTLTISRLEPEDFAVYYCQQGQSYPFTFGQGTKVEIK"
7,0.08 nM,"humanized anti-CD47 mAb KH3L2 (antibody, V domains shown) VH: EVRLSQSGGQMKKPGESMRLSCRASGYTFTSYWMHWVRQAPGRRLEWIGNIDPSDSETHYARKFQGRATLTVDKYSDTAFLELRSLTSDDTAVYYCAGTDLAYWGRGAPVTVSS VL: EIVLTQSPGTLSLSPGERATLSCHASQNINVWLSWYQQKPGQAPRLLIYKASNLHTGIPDRFSGSGSGTDFTLTISRLEPEDFAVYYCQQGQSYPFTFGQGTKVEIK"
8,0.76 nM,"humanized anti-CD47 mAb KH1L3 (antibody, V domains shown) VH: QVQLVQSGAEVKKPGSSVKVSCKASGYTFTSYWMHWVRQAPGQGLEWIGNIDPSDSETHYAQKFQGRATLTVDKSTSTAYMELSSLRSEDTAVYYCAGTDLAYWGQGTLVTVSS VL: EIVMTQSPATLSLSPGETAIISCHASQNINVWLSWYQQRPGQAPRLLIYKASNLHTGIPDRFSGSGWGTDFNLSISNLESGDFGVYYCQQGQSYPFTFGQGTKVEIK"
9,0.18 nM,"humanized anti-CD47 mAb KH3L3 (antibody, V domains shown) VH: EVRLSQSGGQMKKPGESMRLSCRASGYTFTSYWMHWVRQAPGRRLEWIGNIDPSDSETHYARKFQGRATLTVDKYSDTAFLELRSLTSDDTAVYYCAGTDLAYWGRGAPVTVSS VL: EIVMTQSPATLSLSPGETAIISCHASQNINVWLSWYQQRPGQAPRLLIYKASNLHTGIPDRFSGSGWGTDFNLSISNLESGDFGVYYCQQGQSYPFTFGQGTKVEIK"
10,0.19 nM,"humanized anti-CD47 mAb KH2L1 (antibody, V domains shown) VH: QVQLVQSGAEVKKPGASVKVSCKASGYTFTSYWMHWVRQAPGQGLEWIGNIDPSDSETHYAQKFQGRVTLTVDKSTSTVYMELSSLRSEDTAVYYCAGTDLAYWGQGTLVTVSS VL: EIVMTQSPGTLSLSPGERATLSCHASQNINVWLSWYQQKPGQAPRLLIYKASNLHTGIPDRFSGSGSGTDFTLTISRLEPEDFAVYYCQQGQSYPFTFGQGTKVEIK"

# Target: T2, human CD47 extracellular domain …
# Experiment: ELISA, CD47(ECD) coated on regular plate (FIG. 5)
row,binding result,Binder
1,binds,"anti-CD47/DLL3 bispecific antibody BA1 (KH2/H1/L2) (bispecific antibody, Common light chain L2; anti-CD47 arm KH2 (knob), anti-DLL3 arm H1 (hole); not shown: IgG1 heavy chain constant region, knob; IgG1 heavy chain constant region, hole; kappa light chain constant region) heavy 1: QVQLVQSGAEVKKPGASVKVSCKASGYTFTSYWMHWVRQAPGQGLEWIGNIDPSDSETHYAQKFQGRVTLTVDKSTSTVYMELSSLRSEDTAVYYCAGTDLAYWGQGTLVTVSS heavy 2: EVRLSQSGGQMKKPGESMRLSCRASGYTFTSYVMHWVRQAPGRRPEWIGYINPYNDATKYARKFQGRATLTSDKYSDTAFLELRSLTSDDTAVYYCARGGYDYDGDYWGRGAPVTVSS light: EIVLTQSPGTLSLSPGERATLSCHASQNINVWLSWYQQKPGQAPRLLIYKASNLHTGIPDRFSGSGSGTDFTLTISRLEPEDFAVYYCQQGQSYPFTFGQGTKVEIK"
2,binds,"anti-CD47/DLL3 bispecific antibody BA4(C) (bispecific antibody, Variable regions of BA1 on the IgG4 framework with the same cysteine mutations as BA1(C); not shown: IgG4 heavy chain constant region (""IgG4 frame work"") with the same cysteine mutation as BA1(C); knob mutation not explic; hole mutations not expli; kappa light chain constant region) heavy 1: QVQLVQSGAEVKKPGASVKVSCKASGYTFTSYWMHWVRQAPGQGLEWIGNIDPSDSETHYAQKFQGRVTLTVDKSTSTVYMELSSLRSEDTAVYYCAGTDLAYWGQGTLVTVSS heavy 2: EVRLSQSGGQMKKPGESMRLSCRASGYTFTSYVMHWVRQAPGRRPEWIGYINPYNDATKYARKFQGRATLTSDKYSDTAFLELRSLTSDDTAVYYCARGGYDYDGDYWGRGAPVTVSS light: EIVLTQSPGTLSLSPGERATLSCHASQNINVWLSWYQQKPGQAPRLLIYKASNLHTGIPDRFSGSGSGTDFTLTISRLEPEDFAVYYCQQGQSYPFTFGQGTKVEIK"
3,binds,"anti-CD47/DLL3 bispecific antibody BA1(C) (bispecific antibody, BA1 further modified by S354C on the anti-CD47 HC (KH2) and Y349C on the anti-DLL3 HC (H1); not shown: IgG1 heavy chain constant region, knob with added cysteine; IgG1 heavy chain constant region, hole with added cysteine; kappa light chain constant region) heavy 1: QVQLVQSGAEVKKPGASVKVSCKASGYTFTSYWMHWVRQAPGQGLEWIGNIDPSDSETHYAQKFQGRVTLTVDKSTSTVYMELSSLRSEDTAVYYCAGTDLAYWGQGTLVTVSS heavy 2: EVRLSQSGGQMKKPGESMRLSCRASGYTFTSYVMHWVRQAPGRRPEWIGYINPYNDATKYARKFQGRATLTSDKYSDTAFLELRSLTSDDTAVYYCARGGYDYDGDYWGRGAPVTVSS light: EIVLTQSPGTLSLSPGERATLSCHASQNINVWLSWYQQKPGQAPRLLIYKASNLHTGIPDRFSGSGSGTDFTLTISRLEPEDFAVYYCQQGQSYPFTFGQGTKVEIK"
